Test results: the supplement of paper PMC7125110
± gives the standard error. This sample holds only a part of the variants without activity.

B1: glmS ribozyme (parent)
chain: AUAAAAGCGCCAGAACUACAGAAAUGUAGUUGACGAGGAGGAGGUUUAUCGAAUUUUCGGCGGAUGCCUCCAAA

Columns and labels:
Details in all cases: with glucosamine-6-phosphate
glucosamine-6-phosphate [1] = variants of: B1; assay: self-cleavage kobs at 40 uM GlcN6P; higher = faster cleavage; RNA array
In short: (§1)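 Barcoded ribozyme variants, transcribed in situ by E. coli RNA polymerase on sequenced MiSeq chips, were followed via a hybridised Cy3 probe at 37 °C. Glucosamine-6-phosphate ranged from 40 μM to 10 mM in HEPES/KCl/Mg(OAc)2 buffer. kobs came from decay fits to per-tile medians, and kcat and KM from weighted Michaelis–Menten fits.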

glucosamine-6-phosphate [2] = variants of: B1; assay: self-cleavage kobs at 160 uM GlcN6P; higher = faster cleavage; RNA array
In short: as §1

glucosamine-6-phosphate [3] = variants of: B1; assay: self-cleavage kobs at 640 uM GlcN6P; higher = faster cleavage; RNA array
In short: as §1

glucosamine-6-phosphate [4] = variants of: B1; assay: self-cleavage kobs at 10000 uM GlcN6P; higher = faster cleavage; RNA array
In short: as §1

glucosamine-6-phosphate [5] = variants of: B1; assay: self-cleavage kobs at 2500 uM GlcN6P; higher = faster cleavage; RNA array
In short: as §1

| Variant | self-cleavage kobs at 40 uM GlcN6P (glucosamine-6-phosphate [1]) [s⁻¹] | self-cleavage kobs at 160 uM GlcN6P (glucosamine-6-phosphate [2]) [s⁻¹] | self-cleavage kobs at 640 uM GlcN6P (glucosamine-6-phosphate [3]) [s⁻¹] | self-cleavage kobs at 10000 uM GlcN6P (glucosamine-6-phosphate [4]) [s⁻¹] | self-cleavage kobs at 2500 uM GlcN6P (glucosamine-6-phosphate [5]) [s⁻¹] |
| --- | --- | --- | --- | --- | --- |
| AUAAAAGCGCCAGAACUACAGAAAUGUAGUUGACGAGGAGGAGGUUUAUCGAAUUUUCUGAGGAUGCCUCCAAA [G59U C61A] | < 1e-05 | < 1e-05 | < 1e-05 | < 1e-05 |  |
| AUAAAAGCGCGAGAAGUACAGAAAUGUAGUUGACGAGGAGGAGGUUUAUCGAAUUUUCGGCGGAUGCCUCCAAA [C11G C16G] | < 1e-05 | < 1e-05 |  | < 1e-05 | < 1e-05 |
| AUAAAAGCGACAGAACUACAGAAAUGUAGUUGACGAGGAGGAUGUUUAUCGAAUUUUCGGCGGAUGCCUCCAAA [C10A G43U] | < 1e-05 | < 1e-05 |  | < 1e-05 |  |
| AUAAAAGCGCCAAAACUACAGAAAUGUAGUUGACGACGAGGAGGUUUAUCGAAUUUUCGGCGGAUGCCUCCAAA [G13A G37C] | < 1e-05 | < 1e-05 | < 1e-05 | < 1e-05 | < 1e-05 |
| AUAAAAGCGCCAGAUCUACAGAAAUGUAGUUGACGGGGAGGAGGUUUAUCGAAUUUUCGGCGGAUGCCUCCAAA [A15U A36G] | < 1e-05 |  | < 1e-05 | < 1e-05 |  |
| AUAAAAGCGCCAGAACUACAGAAAUGUAGUUGACGAGGAGGAGGUUAAUCGAAUUUUCGGCUGAUGCCUCCAAA [U47A G62U] | < 1e-05 | < 1e-05 | < 1e-05 | < 1e-05 | < 1e-05 |
| AUAAAAGCGCCAGAACUACAGAAAUGUAGUUGACGAGGAGGCGGUUUAUCGAAUUUUCGGCUGAUGCCUCCAAA [A42C G62U] | < 1e-05 |  | < 1e-05 | < 1e-05 | < 1e-05 |
| AUAAAAGCGCCAGAAUUACAGAAAUGUAGUUGACGAAGAGGAGGUUUAUCGAAUUUUCGGCGGAUGCCUCCAAA [C16U G37A] | 7.36e-05 ± 1.1e-05 | 0.000108 ± 1.3e-05 | 0.000713 ± 7.9e-05 | 0.00262 ± 0.00044 | 0.00123 ± 0.00015 |
| AUAAAAGCCCCAGAACUACAGAAAUGUAGUUGACGAGGAGGAGGUUUAUCGAAUUUUCGGCUGAUGCCUCCAAA [G9C G62U] | < 1e-05 | < 1e-05 | < 1e-05 | < 1e-05 |  |
